“And” between values parts separate entries of the source, which are not always exact repeats. Equal values may be shown once.

Assay [1] deals with European robin cryptochrome 4a (Erithacus rubecula Cry4a), wild type, with N-terminal 10x His-tag (European robin (Erithacus rubecula)). Kind of assay: mass photometry; 44 nM ErCry4a WT in 200 mM ammonium acetate, pH 8.3; sample shipped with 2 mM DTT; ONE-MP instrument.
For assay [2] the target is unchanged. In words: native MS; 200 mM ammonium acetate, pH 8; nanoflow electrospray, Q Exactive, positive ion mode; micromolar protein concentrations; His-tagged proteins; WT sample of Figure 3A shipped with 10 mM BME.
Assay [3] has the same target. The description is as above. This is another data set of the same source.
In assay [4] the target is T1, ErCry4a (Erithacus rubecula, UniProt A0A2I4SZI9).
T1 construct: full-length wild type (CTT residues 498-527), N-terminal 10x His-tag kept for native MS, expressed in E. coli; monomer with minor disulfide-linked dimer
T1 sequence (A0A2I4SZI9 1-527): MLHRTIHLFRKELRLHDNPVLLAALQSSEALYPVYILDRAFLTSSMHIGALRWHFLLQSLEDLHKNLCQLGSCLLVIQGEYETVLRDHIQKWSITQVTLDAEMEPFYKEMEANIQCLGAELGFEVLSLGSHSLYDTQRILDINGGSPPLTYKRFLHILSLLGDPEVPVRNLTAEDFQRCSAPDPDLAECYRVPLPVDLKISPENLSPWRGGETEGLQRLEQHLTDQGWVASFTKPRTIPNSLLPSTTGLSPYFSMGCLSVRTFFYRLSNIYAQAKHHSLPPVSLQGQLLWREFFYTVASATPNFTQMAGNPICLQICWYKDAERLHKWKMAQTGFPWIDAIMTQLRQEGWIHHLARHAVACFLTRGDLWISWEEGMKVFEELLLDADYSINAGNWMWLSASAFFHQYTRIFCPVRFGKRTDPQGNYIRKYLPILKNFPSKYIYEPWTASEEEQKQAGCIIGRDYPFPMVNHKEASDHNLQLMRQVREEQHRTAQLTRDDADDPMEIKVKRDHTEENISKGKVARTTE
Kind of assay: native mass spectrometry of holoprotein. Type of assay: binding. The conditions noted are these: co-purified non-covalently bound FAD; 200 mM ammonium acetate, pH 8; monomer and dimer.

The target in assay [5] is ErCry4a C317A mutant (European robin (Erithacus rubecula)). In words: native MS; 200 mM ammonium acetate, pH 8; nanoflow electrospray, Q Exactive, positive ion mode; micromolar protein concentrations; His-tagged proteins; WT sample of Figure 3A shipped with 10 mM BME.
Assay [6] has as its target ErCry4a C412A + C317A mutant (European robin (Erithacus rubecula)). Described as above.
Assay [7] addresses ErCry4a C412A mutant (European robin (Erithacus rubecula)). The assay is described as above.

“European robin cryptochrome 4a (Erithacus rubecula Cry4a), wild type, with N-terminal 10x His-tag (natural protein)”: the percent of counts in the dimer peak in assay [1] is 11%. Moreover, the stoichiometry N came to 2 in assay [1], 2 in assay [2] and 3 in assay [3]. As to `Cc1cc2nc3c(=O)[nH]c(=O)nc-3n(C[C@H](O)[C@H](O)[C@H](O)COP(=O)(O)OP(=O)(O)OC[C@H]3O[C@@H](n4cnc5c(N)ncnc54)[C@H](O)[C@@H]3O)c2cc1C` [FAD], the “native mass spectrometry of holoprotein” value in assay [4] was “the ErCry4a dimers bind FAD and have native MS charge-state distributions”. For the compound ErCry4a C317A mutant (natural protein), the stoichiometry N in assay [5] was 2 and 3.

As for “ErCry4a C412A + C317A mutant (natural protein)”, the stoichiometry N in assay [6] was 2 and 3. With ErCry4a C412A mutant (natural protein), the stoichiometry N in assay [7] was 2 and 3.

These data come from paper PMC10364083, “Dimerization of European Robin Cryptochrome 4a” (The Journal of Physical Chemistry. B, 2023).
